Source: the supplement of paper PMC9170038

Tested on: K4 kissing-loop RNA reporter
Test: apparent KD of K4 kissing-loop reporter; higher = weaker reporter binding
Conditions: Eterna round: R107
Method: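 RNA-MaP round R107: designed RNA switches with theophylline, tryptophan, arginine or FMN aptamers are transcribed on-chip within common flanks. They are titrated with a labelled K4 kissing-loop RNA reporter in RNA-MaP buffer (100 mM Tris pH 7.5, 80 mM KCl, 4 mM MgCl2), without ligand or with the indicated ligand. Median apparent KD per design.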

[1] = input ligand: theophylline 20 uM
[2] = input ligand: tryptophan 2.4 mM
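Also: bound reporter read as fluorescence of individual clusters on recovered sequencing chips by microscopy, with normalized cluster intensities fitted with a binding model.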

Sequence	apparent KD of K4 kissing-loop reporter (input ligand: FMN 200 uM) [nM]	apparent KD of K4 kissing-loop reporter (input ligand: arginine 13.2 mM) [nM]	apparent KD of K4 kissing-loop reporter (input ligand: none) [nM]	apparent KD of K4 kissing-loop reporter [1] [nM]	apparent KD of K4 kissing-loop reporter [2] [nM]
UAGACCAGUGAUGUUGGUUCCAAGACGGAUACCAGACUGGCAGAAGUCCCUUGGCAGCUGUAGACCUUGUGAGCUACAAGGUCGG [Theo A SS t2]	923	184	440	170	295
UGUCAUUGGUCGGCCGCCACUUCAUAGAGAGUGAUGUUCUUAAAGACGGAUCGAAAGAUCUGUCGAAGGACCGGGACCGAUGACU [FiskerMod 9 - Jieux - Same State - Tryptophan B]	997	676	1400	783	302
GUAACCUUGCUCGAGUGAUGUUCGAGCGAAGGAGCGCGAGAAAUCGCAGGUAGGUCGCGCUCGAAAUUUGAGCGAACAAUUAUUA [Arg A Ex t2]	128	125	138	123	113
UGUCAUUGGUCGGCCGCCACUUCGUGUAGAGUGAUGUUUUGUAGGACGGAUCGAAAGAUCUGUCGAAGGACCGGGACCGAUGACU [FiskerMod 18 - Jieux - Same State - Tryptophan B]	500	189	459	336	1100
GCCUAGCAGGGAAGGAGCGCCAUAUAAUUAAAAGUUAAUUAAUGAGUGAUGUUCAAAUAAUGGCAGGUAGGUCGCCCUGCUAGGC [KL-SSArg B9]	378	289	329	316	323
AGACAUAUGACUGUAUGUUUCCAAGGUGUCAAGGAUAUAGUAAACACUAGAAGGUGAGAUCACAGGAGUGAUGUUCGAAAAUGGA [theeternabot_sameState_KL_FMN_A_14]	419	208	237	233	248
AAACAUUGGUCGGAUACCAGCUUGAUCGGAAAACGAUCUGCUGGAGUGAUGUUCCAAUAAAGCCCUUGGCAGCCGACCGAUGAAA [MAT - Same State Theophlline B - Mod of Eli - D14]	814	679	1070	747	780
UCCUGCAAUCGGCCACGAAAGUGGAUGGAUACCAGAGUCGAAAGACUCCCUUGGCAGCCAGUGAUGUUGGAAGCAGGUAAAUAAA	838	499	470	538	505
ACUGGAAUUGUACUCCAGUGAUGUUGGAGGCAGGAUAUCCAGUAAAGGAGAAGGGCCAUCGCGCUAUUUGGCCGCAGGCGGCCAG [Acela]	147	113	128	177	150
GGGCGCGGCGCGGCCGCCACUGGGCCUGGGCGCGCGCCGAGUGAUGUUCGCCUGCGGCUGGGUCGUAGGACCGGGUGCCGGCUGG [BDazzled 1]	422	202	311	376	188
UUAUAUUUUAUAUUUAGUAGAGCUCUCGCUCGAGGACCGGUACGGCCGCCACUCGAGUGAUGUUCGAGUGGGAGAGCUCUACAUU [AK3.3 EXC Tryptophan A]	108	99.5	94.9	100	181
GGAUAGGACAGAGGAUAUCCUGAGGCAAGAAACUUGUCUCAUAAAGGAUGAAUCCUAGUGAUGUUAGGAGAAGGCUGUCCUAUCG [FmnBX 15 - #SwitchBubble #StaticStem #Palindromic]	172	58.8	88	104	71.3
UCCACGCUUAGAGGAUAUCGGAUUAGAGUGAUGUUCUAAAGAAGCCCAGUGAUGUUGGAUGGUAUACGAGAAGGCUGAGGCGUGG [Same State FMN B GF 3]	229	629	725	588	492
AGGCACGAGCAAGGAUAUCGAGUAGAGUGAUGUUCUGCCUGGGUUGGCGCGUAAGGGCCUUCCCAGCGAGAAGGUGCUCGUGCCU [#2 Same State - FMN A Attempt #12 (HarryS)]	253	681	939	677	660
AAAUUUUCAAGUGAUACCAGACAUUUCUAUUACAUUAAUAUAGCUAAGUGAUGUUUAGCAGUCCCUUGGCAGCACUAUUUAAUUA [JR_SSTheophyB_Sub014]	201	265	253	355	216
GUCUCAAAAGAGGCAAGCACUCACGAGGACAAGGAUAUCAUCUCAAUGAGAAGGUGUCCUCGUCCCUAGUGAUGUUAGGGAGUGC [Omei KL FMN A SS E v2]	211	334	368	478	468
